Patent publication EP4786492A1
Where a chain is given by its changes, count along the chain named.

B1: Hab015VL4VH1b-hFc (scFv, part only; not given: VL-VH linker and human IgG1 Fc, V domains shown, not shown: another chain or arm of the molecule; a dimerising Fc or GST; small tags and cut ends)
VL: NIVLTQSPATLSLSPGERATLSCKASENVGTYVSWFQQKPGQSPRLLIYGASNRYTGIPARFSGSGSGTDFTLTISSLEPEDFAVYYCGQFYSFPSTFGGGTKVEIK
VH: EVQLVESGGGLVKPGGSLRLSCAASGITFSNFWMNWVRQAPGKGLEWVGQIRLKSEDYATHYAESVKGRFTISREDSKNTVYLQMNSLKTEDTAVYYCTTGYYFDYWGQGTTVTVSS
B2: Hab015VL4VH6a-hFc (scFv, part only; not given: scFv linker and human IgG1 Fc, V domains shown, not shown: another chain or arm of the molecule; a dimerising Fc or GST; small tags and cut ends)
VL: B1 VL
VH: B1 VH with G42E, E56D
B3: Hab006VL1VH4-hFc (scFv, part only; not given: VL-VH linker and human IgG1 Fc, V domains shown, not shown: another chain or arm of the molecule; a dimerising Fc or GST; small tags and cut ends)
VL: DIQMTQSPSSLSASVGDRVTITCRATKSISKYLAWYQQKPGKAPKLLIFSGSTLQSGVPSRFSGSGSGTDFTLTISSLQPEDFATYYCQQHHEYPYTFGGGTKVEIK
VH: EVQLVQSGAEVKKPGASVKVSCKASGYTFTSYWMHWVRQAPGQRLEWMGVIDPSDSLANYNQEFKGRVTLTVDTSSSTAYMELSSLRSEDTAVYYCARDSTVVAPMDYWGQGTTVTVSS

The binders below were run against monkey DLL3 on CHO-K1-cyno DLL3 cells (cynomolgus monkey) (assay: FACS, CHO-K1-cyno DLL3 cells, 0.16 nM antibody).
Chain of monkey DLL3 on CHO-K1-cyno DLL3 cells (cynomolgus monkey) (chain, as listed by the source limits assumed): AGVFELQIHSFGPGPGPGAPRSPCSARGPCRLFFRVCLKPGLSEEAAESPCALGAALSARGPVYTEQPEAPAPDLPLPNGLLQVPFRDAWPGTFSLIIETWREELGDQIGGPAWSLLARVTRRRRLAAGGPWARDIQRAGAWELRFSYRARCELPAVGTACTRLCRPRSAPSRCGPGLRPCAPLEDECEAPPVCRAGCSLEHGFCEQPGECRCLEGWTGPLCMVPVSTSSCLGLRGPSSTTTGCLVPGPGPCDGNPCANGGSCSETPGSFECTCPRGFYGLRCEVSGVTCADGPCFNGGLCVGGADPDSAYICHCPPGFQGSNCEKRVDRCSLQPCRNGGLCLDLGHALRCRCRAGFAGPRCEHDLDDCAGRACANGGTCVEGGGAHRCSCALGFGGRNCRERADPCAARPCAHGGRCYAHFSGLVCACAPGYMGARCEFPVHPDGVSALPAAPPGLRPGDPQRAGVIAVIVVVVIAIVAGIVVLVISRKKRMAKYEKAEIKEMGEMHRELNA

Binder | MFI
B1 | 1200 MFI
B2 | 1150 MFI
B3 | 5000 MFI

The binders below were run against mouse DLL3 on CHO-K1-mDLL3 cells (mouse) (UniProt O88516) (assay: FACS, CHO-K1-mDLL3 cells, 4 nM antibody).
Chain of mouse DLL3 on CHO-K1-mDLL3 cells (mouse) (O88516 other isoform, or with tags, fused parts or gaps limits assumed): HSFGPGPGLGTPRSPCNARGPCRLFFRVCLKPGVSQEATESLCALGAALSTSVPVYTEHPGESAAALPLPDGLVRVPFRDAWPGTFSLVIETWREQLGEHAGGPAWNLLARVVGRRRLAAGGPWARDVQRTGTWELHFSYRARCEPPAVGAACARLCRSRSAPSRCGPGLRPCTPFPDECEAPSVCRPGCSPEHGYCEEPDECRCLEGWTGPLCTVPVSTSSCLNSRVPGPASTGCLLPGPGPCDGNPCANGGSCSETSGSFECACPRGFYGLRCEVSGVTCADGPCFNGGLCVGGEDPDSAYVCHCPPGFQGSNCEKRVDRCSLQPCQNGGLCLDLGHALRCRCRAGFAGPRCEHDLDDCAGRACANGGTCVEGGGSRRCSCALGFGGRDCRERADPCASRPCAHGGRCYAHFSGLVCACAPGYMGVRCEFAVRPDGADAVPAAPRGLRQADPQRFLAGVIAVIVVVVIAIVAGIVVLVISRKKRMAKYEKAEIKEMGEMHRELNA

Binder | MFI
B1 | 1120 MFI
B2 | 1260 MFI
B3 | 615 MFI

What follows are binders tested against monkey DLL3 on CHO-K1-cyno DLL3 cells (cynomolgus monkey) (assay: FACS, CHO-K1-cyno DLL3 cells, 0.8 nM antibody).

Binder | MFI
B1 | 4290 MFI
B2 | 4260 MFI
B3 | 7840 MFI

Each binder was assayed against human DLL3 protein expressed on CHO-K1 recombinant cells (human DLL3 extracellular segment fused to EpCAM transmembrane and intracellular regions) (human) (UniProt Q9NYJ7) (assay: FACS, CHO-K1 hDLL3 cells, 0.032 nM antibody).
Chain of human DLL3 protein expressed on CHO-K1 recombinant cells (human DLL3 extracellular segment fused to EpCAM transmembrane and intracellular regions) (human) (Q9NYJ7 other isoform, or with tags, fused parts or gaps limits assumed): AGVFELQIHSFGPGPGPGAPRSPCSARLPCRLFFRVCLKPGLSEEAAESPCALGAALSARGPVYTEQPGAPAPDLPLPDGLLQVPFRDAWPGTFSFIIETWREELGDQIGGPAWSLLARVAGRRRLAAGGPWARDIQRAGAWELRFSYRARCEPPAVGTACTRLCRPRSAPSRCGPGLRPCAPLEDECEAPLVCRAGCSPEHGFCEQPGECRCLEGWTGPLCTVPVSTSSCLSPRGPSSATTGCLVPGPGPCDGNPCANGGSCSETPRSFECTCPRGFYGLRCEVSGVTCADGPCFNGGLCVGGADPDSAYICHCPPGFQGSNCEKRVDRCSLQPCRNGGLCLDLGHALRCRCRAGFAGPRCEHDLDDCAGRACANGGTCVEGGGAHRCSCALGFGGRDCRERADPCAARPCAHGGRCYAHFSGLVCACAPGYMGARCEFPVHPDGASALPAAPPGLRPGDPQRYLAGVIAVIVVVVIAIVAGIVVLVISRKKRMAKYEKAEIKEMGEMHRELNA

Binder | MFI
B1 | 302 MFI
B2 | 265 MFI
B3 | 1050 MFI

These binders were tested against human DLL3 protein expressed on CHO-K1 recombinant cells (human DLL3 extracellular segment fused to EpCAM transmembrane and intracellular regions) (human) (UniProt Q9NYJ7) (assay: FACS, CHO-K1 hDLL3 cells, 4 nM antibody).

Binder | MFI
B1 | 10300 MFI
B2 | 11200 MFI
B3 | 12700 MFI

The binders below were run against human DLL3 protein expressed on CHO-K1 recombinant cells (human DLL3 extracellular segment fused to EpCAM transmembrane and intracellular regions) (human) (UniProt Q9NYJ7) (assay: FACS, CHO-K1 hDLL3 cells, 0.16 nM antibody).

Binder | MFI
B1 | 937 MFI
B2 | 861 MFI
B3 | 3100 MFI

The binders below were run against mouse DLL3 on CHO-K1-mDLL3 cells (mouse) (UniProt O88516) (assay: FACS, CHO-K1-mDLL3 cells, 0.8 nM antibody).

Binder | MFI
B1 | 813 MFI
B2 | 884 MFI
B3 | 529 MFI

Each binder was assayed against human DLL3 protein expressed on CHO-K1 recombinant cells (human DLL3 extracellular segment fused to EpCAM transmembrane and intracellular regions) (human) (UniProt Q9NYJ7) (assay: FACS, CHO-K1 hDLL3 cells, 0.8 nM antibody).

Binder | MFI
B1 | 4640 MFI
B2 | 4370 MFI
B3 | 7270 MFI

What follows are binders tested against monkey DLL3 on CHO-K1-cyno DLL3 cells (cynomolgus monkey) (assay: FACS, CHO-K1-cyno DLL3 cells, 0.032 nM antibody).

Binder | MFI
B1 | 389 MFI
B2 | 352 MFI
B3 | 1730 MFI

What follows are binders tested against DLL3 endogenously expressed on NCI-H82 cells (UniProt Q9NYJ7) (assay: FACS on NCI-H82 cells; antibody 0.032 nM).
Chain of DLL3 endogenously expressed on NCI-H82 cells (Q9NYJ7 27-618): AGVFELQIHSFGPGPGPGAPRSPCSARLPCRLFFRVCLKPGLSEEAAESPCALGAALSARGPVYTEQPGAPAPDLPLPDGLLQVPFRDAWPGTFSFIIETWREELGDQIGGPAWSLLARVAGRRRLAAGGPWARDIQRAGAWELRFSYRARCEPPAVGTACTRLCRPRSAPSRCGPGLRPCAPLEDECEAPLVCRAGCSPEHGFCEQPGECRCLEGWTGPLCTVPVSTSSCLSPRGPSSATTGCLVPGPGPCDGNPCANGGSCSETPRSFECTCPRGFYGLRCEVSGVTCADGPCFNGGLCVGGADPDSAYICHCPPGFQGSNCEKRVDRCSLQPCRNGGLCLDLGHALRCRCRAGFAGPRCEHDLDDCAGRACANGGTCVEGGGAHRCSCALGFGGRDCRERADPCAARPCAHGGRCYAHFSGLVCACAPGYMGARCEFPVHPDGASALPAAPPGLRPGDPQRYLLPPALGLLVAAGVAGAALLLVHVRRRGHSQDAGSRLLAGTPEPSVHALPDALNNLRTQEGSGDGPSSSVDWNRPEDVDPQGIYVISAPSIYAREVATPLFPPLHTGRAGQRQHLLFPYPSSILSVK

Binder | MFI
B1 | 218
B2 | 211
B3 | 242

These binders were tested against human delta-like ligand 3 (DLL3) on SHP77 cells (human) (UniProt Q9NYJ7) (assay: FACS on SHP77 cells).
Chain of human delta-like ligand 3 (DLL3) on SHP77 cells (human) (Q9NYJ7 27-618, stated change not applied): as the sequence (Q9NYJ7 27-618) above

Binder | MFI at 0.00128 nM | MFI at 0.0064 nM | MFI at 0.032 nM | MFI at 0.16 nM | MFI at 0.8 nM | MFI at 4 nM | MFI at 20 nM | MFI at 100 nM
B1 | 97 MFI | 113 MFI | 169 MFI | 371 MFI | 720 MFI | 829 MFI | 962 MFI | 1190 MFI
B2 | 101 MFI | 114 MFI | 173 MFI | 361 MFI | 692 MFI | 821 MFI | 943 MFI | 1270 MFI
B3 | 208 MFI | 275 MFI | 458 MFI | 938 MFI | 1310 MFI | 1410 MFI | 1600 MFI | 1890 MFI

These binders were tested against DLL3 endogenously expressed on NCI-H82 cells (UniProt Q9NYJ7) (assay: FACS on NCI-H82 cells; antibody 4 nM).

Binder | MFI
B1 | 1020
B2 | 1050
B3 | 291

What follows are binders tested against human DLL4 protein (Acro, Cat. No. DL4-H5227) (human) (UniProt Q9NR61) (assay: ELISA, coated hDLL4; maximum over 0.1, 1, 10, 100 nM antibody).
Chain of human DLL4 protein (Acro, Cat. No. DL4-H5227) (human) (Q9NR61 27-524 limits assumed): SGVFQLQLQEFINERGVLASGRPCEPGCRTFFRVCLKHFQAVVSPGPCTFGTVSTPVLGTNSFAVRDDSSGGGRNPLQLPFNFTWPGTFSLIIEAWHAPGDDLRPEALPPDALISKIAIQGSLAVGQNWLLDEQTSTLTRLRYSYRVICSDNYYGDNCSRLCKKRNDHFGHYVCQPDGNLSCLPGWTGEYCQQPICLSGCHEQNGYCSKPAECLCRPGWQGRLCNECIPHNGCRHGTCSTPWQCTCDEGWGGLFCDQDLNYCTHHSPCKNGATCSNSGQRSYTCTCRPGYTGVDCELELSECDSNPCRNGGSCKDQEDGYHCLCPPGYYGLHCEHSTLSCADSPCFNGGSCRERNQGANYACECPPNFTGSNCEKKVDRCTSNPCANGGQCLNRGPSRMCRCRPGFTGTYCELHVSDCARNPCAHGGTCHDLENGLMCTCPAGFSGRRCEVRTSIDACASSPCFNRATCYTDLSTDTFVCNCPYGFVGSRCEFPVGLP

Binder | Emax of OD450 nm binding value
B1 | 0.67 OD450 nm
B2 | 0.64 OD450 nm
B3 | 0.15 OD450 nm

Each binder was assayed against human DLL3 protein expressed on CHO-K1 recombinant cells (human DLL3 extracellular segment fused to EpCAM transmembrane and intracellular regions) (human) (UniProt Q9NYJ7) (assay: FACS, CHO-K1 hDLL3 cells, 0.0064 nM antibody).

Binder | MFI
B1 | 152 MFI
B2 | 144 MFI
B3 | 716 MFI

These binders were tested against monkey DLL3 on CHO-K1-cyno DLL3 cells (cynomolgus monkey) (assay: FACS, CHO-K1-cyno DLL3 cells, 4 nM antibody).

Binder | MFI
B1 | 6270 MFI
B2 | 6820 MFI
B3 | 8590 MFI

These binders were tested against monkey DLL3 on CHO-K1-cyno DLL3 cells (cynomolgus monkey) (assay: FACS, CHO-K1-cyno DLL3 cells, 20 nM antibody).

Binder | MFI
B1 | 6820 MFI
B2 | 7330 MFI
B3 | 9060 MFI

These binders were tested against DLL3 endogenously expressed on NCI-H82 cells (UniProt Q9NYJ7) (assay: FACS on NCI-H82 cells; antibody 0.00128 nM).

Binder | MFI
B1 | 114
B2 | 118
B3 | 126

Each binder was assayed against human DLL3 protein expressed on CHO-K1 recombinant cells (human DLL3 extracellular segment fused to EpCAM transmembrane and intracellular regions) (human) (UniProt Q9NYJ7) (assay: FACS, CHO-K1 hDLL3 cells, 100 nM antibody).

Binder | MFI
B1 | 11800 MFI
B2 | 12200 MFI
B3 | 14300 MFI

Each binder was assayed against human DLL3 protein expressed on CHO-K1 recombinant cells (human DLL3 extracellular segment fused to EpCAM transmembrane and intracellular regions) (human) (UniProt Q9NYJ7) (assay: FACS, CHO-K1 hDLL3 cells, 0.00128 nM antibody).

Binder | MFI
B1 | 120 MFI
B2 | 120 MFI
B3 | 419 MFI

Each binder was assayed against monkey DLL3 on CHO-K1-cyno DLL3 cells (cynomolgus monkey) (assay: FACS, CHO-K1-cyno DLL3 cells, 0.0064 nM antibody).

Binder | MFI
B1 | 163 MFI
B2 | 153 MFI
B3 | 1380 MFI

These binders were tested against DLL3 endogenously expressed on NCI-H82 cells (UniProt Q9NYJ7) (assay: FACS on NCI-H82 cells; antibody 100 nM).

Binder | MFI
B1 | 1410
B2 | 1550
B3 | 626

What follows are binders tested against mouse DLL3 on CHO-K1-mDLL3 cells (mouse) (UniProt O88516) (assay: FACS, CHO-K1-mDLL3 cells, 0.0064 nM antibody).

Binder | MFI
B1 | 123 MFI
B2 | 130 MFI
B3 | 187 MFI

These binders were tested against DLL3 endogenously expressed on NCI-H82 cells (UniProt Q9NYJ7) (assay: FACS on NCI-H82 cells; antibody 0.8 nM).

Binder | MFI
B1 | 914
B2 | 913
B3 | 412

These binders were tested against mouse DLL3 on CHO-K1-mDLL3 cells (mouse) (UniProt O88516) (assay: FACS, CHO-K1-mDLL3 cells, 20 nM antibody).

Binder | MFI
B1 | 1340 MFI
B2 | 1460 MFI
B3 | 627 MFI

Each binder was assayed against monkey DLL3 on CHO-K1-cyno DLL3 cells (cynomolgus monkey) (assay: FACS, CHO-K1-cyno DLL3 cells, 0.00128 nM antibody).

Binder | MFI
B1 | 117 MFI
B2 | 118 MFI
B3 | 750 MFI

What follows are binders tested against monkey DLL3 on CHO-K1-cyno DLL3 cells (cynomolgus monkey) (assay: FACS, CHO-K1-cyno DLL3 cells, 100 nM antibody).

Binder | MFI
B1 | 7520 MFI
B2 | 7480 MFI
B3 | 9720 MFI

Each binder was assayed against mouse DLL3 on CHO-K1-mDLL3 cells (mouse) (UniProt O88516) (assay: FACS, CHO-K1-mDLL3 cells, 100 nM antibody).

Binder | MFI
B1 | 1490 MFI
B2 | 1590 MFI
B3 | 589 MFI

Each binder was assayed against human DLL3 protein (extracellular segment, His tag) (human) (UniProt Q9NYJ7) (assay: SPR (Biacore 8K), antibody captured on Protein A chip, DLL3 antigen in solution, 1:1 Langmuir fit).
Chain of human DLL3 protein (extracellular segment, His tag) (human) (Q9NYJ7 27-492): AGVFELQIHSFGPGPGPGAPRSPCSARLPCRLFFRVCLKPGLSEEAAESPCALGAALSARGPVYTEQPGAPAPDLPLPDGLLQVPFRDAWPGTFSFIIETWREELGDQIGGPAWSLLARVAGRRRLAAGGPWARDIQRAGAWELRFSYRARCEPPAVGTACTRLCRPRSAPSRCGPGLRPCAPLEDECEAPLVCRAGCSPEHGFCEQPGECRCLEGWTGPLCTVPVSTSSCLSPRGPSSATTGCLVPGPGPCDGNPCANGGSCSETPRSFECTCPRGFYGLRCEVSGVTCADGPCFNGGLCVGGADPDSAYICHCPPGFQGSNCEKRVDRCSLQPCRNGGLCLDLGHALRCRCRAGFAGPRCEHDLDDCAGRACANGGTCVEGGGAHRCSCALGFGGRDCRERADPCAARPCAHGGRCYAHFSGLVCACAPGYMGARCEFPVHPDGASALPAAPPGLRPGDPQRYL

Binder | Kd | koff | kon
B1 | 0.0194 nM | 3.49e-05 s⁻¹ | 1.8e+06 M⁻¹ s⁻¹
B2 | 0.000116 nM | 2.03e-07 s⁻¹ | 1.75e+06 M⁻¹ s⁻¹
B3 | 0.568 nM | 0.000221 s⁻¹ | 389000 M⁻¹ s⁻¹

The binders below were run against DLL3 endogenously expressed on NCI-H82 cells (UniProt Q9NYJ7) (assay: FACS on NCI-H82 cells; antibody 20 nM).

Binder | MFI
B1 | 1130
B2 | 1180
B3 | 519

These binders were tested against mouse DLL3 on CHO-K1-mDLL3 cells (mouse) (UniProt O88516) (assay: FACS, CHO-K1-mDLL3 cells, 0.16 nM antibody).

Binder | MFI
B1 | 350 MFI
B2 | 361 MFI
B3 | 406 MFI

What follows are binders tested against DLL3 endogenously expressed on NCI-H82 cells (UniProt Q9NYJ7) (assay: FACS on NCI-H82 cells; antibody 0.0064 nM).

Binder | MFI
B1 | 131
B2 | 133
B3 | 155

What follows are binders tested against human DLL3 protein expressed on CHO-K1 recombinant cells (human DLL3 extracellular segment fused to EpCAM transmembrane and intracellular regions) (human) (UniProt Q9NYJ7) (assay: FACS, CHO-K1 hDLL3 cells, 20 nM antibody).

Binder | MFI
B1 | 11300 MFI
B2 | 12400 MFI
B3 | 13600 MFI

What follows are binders tested against human DLL1 protein (Acro, Cat. No. DL1-H52H8) (human) (UniProt O00548) (assay: ELISA, coated hDLL1; maximum over 0.1, 1, 10, 100 nM antibody).
Chain of human DLL1 protein (Acro, Cat. No. DL1-H52H8) (human) (O00548 18-540 limits assumed): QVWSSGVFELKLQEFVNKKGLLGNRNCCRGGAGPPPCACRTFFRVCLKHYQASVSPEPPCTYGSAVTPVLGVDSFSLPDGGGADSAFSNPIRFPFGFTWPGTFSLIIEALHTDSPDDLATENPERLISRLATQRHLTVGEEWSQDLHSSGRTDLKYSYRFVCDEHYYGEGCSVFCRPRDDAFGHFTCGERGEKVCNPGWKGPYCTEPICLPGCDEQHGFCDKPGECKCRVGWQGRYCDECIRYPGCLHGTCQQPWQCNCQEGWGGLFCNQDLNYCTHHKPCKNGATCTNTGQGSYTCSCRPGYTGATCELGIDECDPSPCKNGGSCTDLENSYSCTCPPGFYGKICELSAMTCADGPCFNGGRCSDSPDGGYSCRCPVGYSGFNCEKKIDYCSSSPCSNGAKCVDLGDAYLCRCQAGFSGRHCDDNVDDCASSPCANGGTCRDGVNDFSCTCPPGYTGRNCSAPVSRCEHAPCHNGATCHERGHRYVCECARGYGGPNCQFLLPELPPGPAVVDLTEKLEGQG

Binder | Emax of OD450 nm binding value
B1 | 0.39 OD450 nm
B2 | 0.49 OD450 nm
B3 | 0.07 OD450 nm

The binders below were run against mouse DLL3 on CHO-K1-mDLL3 cells (mouse) (UniProt O88516) (assay: FACS, CHO-K1-mDLL3 cells, 0.00128 nM antibody).

Binder | MFI
B1 | 114 MFI
B2 | 118 MFI
B3 | 126 MFI

The binders below were run against DLL3 endogenously expressed on NCI-H82 cells (UniProt Q9NYJ7) (assay: FACS on NCI-H82 cells; antibody 0.16 nM).

Binder | MFI
B1 | 461
B2 | 469
B3 | 367

These binders were tested against mouse DLL3 on CHO-K1-mDLL3 cells (mouse) (UniProt O88516) (assay: FACS, CHO-K1-mDLL3 cells, 0.032 nM antibody).

Binder | MFI
B1 | 172 MFI
B2 | 170 MFI
B3 | 246 MFI
